Measurements: the supplement of paper PMC9170038

Assays:
MS2 coat protein [1] = test: apparent KD of MS2 coat protein, switch ON state; designed switch direction (-1 OFF switch, 1 ON switch): -1; higher = weaker reporter binding; details: FMN input: 0 or 200 uM; Eterna round: R93 (includes R88 designs)
Outline: (§1)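 Titration buffer: 100 mM Tris-HCl pH 7.5, 80 mM KCl, 4 mM MgCl2, without or with constant ligand. Designed RNA switches transcribed on-chip from Illumina sequencing clusters received SNAP-549-labelled MS2 coat protein in twofold steps from 0.7 or 1.5 nM to 3 µM. Apparent KD is the median per design of fits to normalised cluster binding curves.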

MS2 coat protein [2] = test: apparent KD of MS2 coat protein, switch OFF state (with FMN for OFF switches, without FMN for ON switches); designed switch direction (-1 OFF switch, 1 ON switch): -1; higher = weaker reporter binding; details: FMN input: 0 or 200 uM; Eterna round: R93 (includes R88 designs)
Outline: as §1

Sequence	apparent KD of MS2 coat protein (MS2 coat protein [1]) [nM]	apparent KD of MS2 coat protein (MS2 coat protein [2]) [nM]
AAAAAAAAAGGAUAUAAAACAGAGGAUAUACAUAAAUAAAAACAUGAGGAUCACCCAUGUAGAAGGCUGAAAAA [Meechl Ex2 R2 m0]	18.7	22.2
AAAAAAAGAGGAUAUACGUGAAAAAUAAAAAUGUAAAAACCACAUGAGGAUCACCCAUGUAGAAGGCUUAAAAA [Ecx-I 62% 2]	26.4	22.8
AAAAAACAUGAGGAUCACCCAUGUAAGGAUAUCGAAAAGAAAAGAAAAGAAAGAAGAACGAGAAGGUACAAGAA [Neferirkare Kakai]	16.6	16
AAAAAACAUGAGGAUCACCCAUGUAAGGAUAUCGGAAAAGGAAAAAAAAAAAAUAAGACGAGAAGGUACACCAA [Mat - Exclusion 1 - Eli mod - D79]	23.3	31.2
AAAAAACAUGAGGAUCACCCAUGUAAGGAUAUGCAAGAAAGAAGAAAGAAAAGAAAAAGCAGAAGGUACAAAAA [Amethyst 71]	32.1	34.4
AAAAAACAUGAGGAUCACCCAUGUAAGGAUAUGCGAAAUAAAAGAAAUAAAAAGGAAAGCAGAAGGUACAUGAA [JL wbt mod 8]	27.2	84.4
AAAAAACAUGAGGAUCACCCAUGUAAGGAUAUGCUAGGAAAAAGAAAAAUAAAAACUAGCAGAAGGUAUAUGAA [JL wbt mod 12]	24.5	27.4
AAAAAACAUGAGGAUCACCCAUGUAAGGAUAUGUAAAAUAAAAGAAAAAUAAAGAAAAGCAGAAGGUACAUGUA [JL wbt mod 16]	40.4	44.5
AAAAAACAUGAGGAUCACCCAUGUCAGGAUAUCGUGCAGAAAAAAAAAAAAAACUGCACGAGAAGGGACAUGAA [Mod of jnicol]	42	94.9
AAAAAACAUGAGGAUCACCCAUGUCAGGAUAUCUGUAAAAAUUAAAAAAAUAAAAUACAGAGAAGGGACAUAAA [Ex1: 606]	44	100
AAAAAACAUGAGGAUCACCCAUGUGAGGAUAUCGAAAAGUUAAAGAAAAAGACGAAAAUGAGAAGGCGCAAAAA [Fiskers Exclusion D1]	26.3	23.9
AAAAAACAUGAGGAUCACCCAUGUGAGGAUAUGAAAAAACAAAAAAAAAAGUAAUCAAUCAGAAGGCACAACAA [JR_Exc--1_Sub1210]	27.4	28.9
AAAAAACAUGAGGAUCACCCAUGUGAGGAUAUGCAAAACCCAUAUAAAAAGAGAAAAAGCAGAAGGCACAAAAA [wbt round 1 mod]	25.8	40.4
AAAAAACAUGAGGAUCACCCAUGUGAGGAUAUGCAUAAAAAAAAAAAAAAAAAAAAAUGCAGAAGGCACAUAAA [jn_bayonne]	40.1	78.5
AAAAAACAUGAGGAUCACCCAUGUUAGGAUAUCGUGCAGAAAAAAAAAAAAAACUGCACGAGAAGGAACAAGGA [Brourd - Exclusion 1 - Sub 2]	29.1	44.9
AAAAAAGCAGGAUAUACGAACAUGUCAAAAGACGUGAAGGGACAUGAGGAUCACCCAUGUAGAAGGGUUAAGAA [JL Stem Breaker 16]	179	36.8
AAAAAAGGAGGAUAUACGAACAUGUCAAAAGACGUGAAGGGACAUGAGGAUCACCCAUGUAGAAGGUCUAAAAA [JL Part Open 35]	52.3	34.1
AAAAACCUAGGAUAUACAUGAGGAUCACCCAUGUAAAGAAAAAAAAAGGGAAAAAAAAGUAGAAGGAGGAAGAA [JR_Exc003_Sub1201]	16.6	18.6
AAAAAGCGAGGAUAUACAUGAGGAUCACCCAUGUCAAAAGGUAAGACCGCAGAAAAAAGUAGAAGGCGCAAAAA [Exclusion3-01]	68.1	172
AAAAAGCGAGGAUAUACGAGUCAAAGAAAAGACAAAGGGAAACAUGAGGAUCACCCAUGUAGAAGGCGCAAAAA [Fiskers exclusion D2 62% 1]	23.7	134
AAAAAGGCAGGAUAUACAAAAAAGAGAAGAGAGGAGGAGGGACAUGAGGAUCACCCAUGUAGAAGGGCCAAAAA [Karl Gunnar Myrdal]	31.5	32.5
AAAAAGGGAGGAUAUACAUGAGGAUCACCCAUGUAAAACGCGCCAACAAAGAAACAAAGUAGAAGGCCCAAAAA [Default title]	17.3	14.5

Sequence	apparent KD of MS2 coat protein (MS2 coat protein [1]) [nM]	apparent KD of MS2 coat protein (MS2 coat protein [2]) [nM]
AAAAAGGGAGGAUAUACAUGAGGAUCACCCAUGUAUCAGACGAAAAAGAGUCUGGAAUGUAGAAGGCCCAAAAA [65%, Moding Exclusion3-cac2, 3]	14.3	25
AAAAAGGGAGGAUAUGCAUACACACAAAAAAAAAAAAAGGGACAUGAGGAUCACCCAUGUAGAAGGCCCAAAAA [Dora Explored 5 - Jieux - Exclusion 2]	29.9	25.1
AAAAAGGUAGGAUAUACAUGAGGAUCACCCAUGUACAUAAAUGGAGAAAAAAACAGUAGUAGAAGGGCCAAAAA [Ex3 Malc#10]	29.5	36.9
AAAAAGUCAGGAUAUCGGAAAAUAAAAAUAAAAAUAAAAAACGAGAAGGGACAUGAGGAUCACCCAUGUAUGAC [Mat - Exclusion 4 - Mayanna - D114]	27.6	24.6
AAAAAGUGAGGAUAUACAUGAGGAUCACCCAUGUGUAUAAAAAAAUACACAAAAGAAAGUAGAAGGCACUAAAG [Mat - Exclusion 3 - Mayanna mod - D109]	28.4	84.8
AAAAAGUGAGGAUAUACAUGAGGAUCACCCAUGUGUAUAAAAAAUUACACAAAAGAAUGUAGAAGGCACUAAAA [JL Mayanne Mod Summer]	23.5	124
AAAAAGUGAGGAUAUACGUUGAAGAGAAAACACAUCCAGGCGUAGAAGGCACAUGAGGAUCACCCAUGUACAAA [Ex4 Malc#7]	23.4	19.8
AAAAAGUGAGGAUAUGGUAAAAAAAAAAAAAAAAAAAAACUCCAGAAGGCACAUGAGGAUCACCCAUGUAAAAA [Jolly's Folly - Jieux - Exclusion 4]	58.5	5290
AAAAAGUGAGGAUAUGUCAAAAGUCACAAAAGUGACAAAAGACAGAAGGCACAUGAGGAUCACCCAUGUGAAAG [Mat - Exaclusion 4 - Eli mod - D53]	28.9	37.6
AAAAAGUGAGGAUAUUCGGAUAGGAAAACGAAAACCUAUCCGAAGAAGGCACAUGAGGAUCACCCAUGUGAGAA [67% Ecls-II - Early G + late G segment 4]	26.5	51.3
AAAAAGUUAGGAUAUACAUGAGGAUCACCCAUGUACAUAUAUGGAGAAUAUAGCAGUAGUAGAAGGGACAAAAA [EX2 Malc#13]	26.9	34.8
AAAAAUCGAGGAUAUACAUGAGGAUCACCCAUGUGGGAACACGAUUACACAAAAGAAAGUAGAAGGCGAUAAAA [Ex 3 May 22]	28.2	162
AAAAAUUGAGGAUAUACGUACAUGUCGAAAGACGUGAAGGGACAUGAGGAUCACCCAUGUAGAAGGCGAAAAAA [Mat - Exclusion 2 - JL mod - D73]	45.6	27.9
AAAACACAUGAGGAUCACCCAUGUGAGGAUAUGCGAGUGAAAAUAAAAAUAAAACAUAGCAGAAGGCACAAGGA [Amethyst 80]	35.9	45
AAAACACAUGAGGAUCACCCAUGUGAGGAUAUGCUAUGGAAAAUAAAAAUAAAACAUAGCAGAAGGCACAAAGG [Denovo 18]	32.9	244
AAAACGGUAGGAUAUACGAUUUGGUACUAGACCGAGGAACCACAUGAGGAUCACCCAUGUAGAAGGACCAAAAA [EX2 Malc#19]	13	14
AAAACGUGAGGAUAUACAUGAGGAUCACCCAUGUGAAACAGGAAAAACUGAAAGAAAAGUAGAAGGCACGAAAA [Tweaking Eli]	29	44.4
AAAACUCGAGGAUAUGCAAAAUGAUUGCGAAAGCAAUCAAAACAUGAGGAUCACCCAUGUAGAAGGCGAGAAAA [Mat - Mod of Eli]	23.5	13
AAAACUGGAGGAUAUACAUGAGGAUCACCCAUGUGUGGAUGAGCUGAAACGGCAUCACGUAGAAGGCCACAAAA [Gilly Gone Silly 40 - Jieux - Exclusion 3]	35.3	45.2
AAAACUGGAGGAUAUACAUGAGGAUCACCCAUGUGUGGAUGAGCUGUGUCGGCGUCAAGUAGAAGGCCACAAAA [Gilly Gone Silly 36 - Jieux - Exclusion 3]	36.7	43.1
AAAAGACAUGAGGAUCACCCAUGUGAGGAUAUGACGUAAAGAAAGAAAGAAGAAAUCGUCAGAAGGCACACCUA [Mat - Exclusion 1 - Eli mod - D68]	31.6	63.5
AAAAGCACAGGAUAUACAAAAAAAUGACGAAAGUCAUAGGGACAUGAGGAUCACCCAUGUAGAAGGGUGCAAAA [Mod of Meechl's... 64% 4]	197	440
